The data set has as its system MS2 coat protein. Put plainly: apparent KD of MS2 coat protein; designed switch direction (-1 OFF switch, 1 ON switch): -1; higher = weaker reporter binding. The method, boiled down:
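The buffer was Tris-HCl pH 7.5 with KCl, MgCl2, BSA, DTT, tRNA and Tween-20. In it, SNAP-549-labelled MS2 coat protein was titrated in doubling steps from 0.7 or 1.5 nM to 3 µM over chip-bound RNA switches transcribed by stalled E. coli RNA polymerase on Illumina chips. Apparent KD is the per-design median over clusters of curve fits to normalised fluorescence.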

Setting [1] is: input ligand: microRNA oligo, concentration not stated.
[2] abbreviates: Eterna round: R95, input ligand: FMN 200 uM.
Where [3] appears, read: Eterna round: R95, input ligand: microRNA oligo, concentration not stated.
The mark [4] stands for this setting: Eterna round: R95, input ligand: none.

With “GACCUCACUGUAGGAUAUGACCGAUCCAGAGGAUCAGAAGGACAUGAGGAUCACCCAUGUGCGUGGAGGGAACGUAAGAAACAA [Eternabot solution 2] (Eterna round: R96, puzzle: Exclusion NG 1)”, the “apparent KD of MS2 coat protein” value was determined as 323 nM (input ligand: FMN 200 uM), 29.4 nM under setting [1] and 52.9 nM (input ligand: none).
As for “GACCUCAGUCAGGAUAUAGAUAGCGAUAGCGAAUUAGAAGGGACCACAUGAGGAUCACCCAUGUUAGUAUCAUU [Eternabot (L2) Solution 10] (Eterna round: R97, puzzle: Exclusion 6)”, the “apparent KD of MS2 coat protein” value stood at 38.9 nM (input ligand: FMN 200 uM) and 34.2 nM (input ligand: none).
The corresponding values for “GACCUCCCUGUAAGGAUAUCCAUGCAUCAAAGCAAGGAGAAGGUACAUGAGGAUCACCCAUGUCACCCGCGUUA (Eterna round: R97, puzzle: Brourd's mod of Exclusion 4)” are 23.1 nM and 15.4 nM.
“GACCUCCCUGUAAGGAUAUCCAUGCAUCAAAGCAUGGAGAAGGUACAUGAGGAUCACCCAUGUCACCCGCGUUA (Eterna round: R97, puzzle: Brourd's mod of Exclusion 4)”: the “apparent KD of MS2 coat protein” value was 20.7 nM (input ligand: FMN 200 uM) and 15 nM (input ligand: none).
The corresponding values for “GACUCACAUGAGGAUCACCCAUGUUAGGAUAUAACCUCAUCAACAACGAUUUGGGAGGUUAGAAGGGAUGAUGG [Eternabot (L1) Solution 80] (Eterna round: R97, puzzle: Exclusion 1)” are 110 nM and 89 nM.
In the case of “GAGAAACAUGAGGAUCACCCAUGUGAGGAUAUGAAAAAGAAAAGAAAAGAAAGAAGAAUCAGAAGGCACAAAGC [salish99-ex1_r3_091] (puzzle: Exclusion 1)”, the “apparent KD of MS2 coat protein” value under setting [2] was found to be 23.1 nM, the “apparent KD of MS2 coat protein” value under setting [3] worked out at 32.4 nM and the “apparent KD of MS2 coat protein” value under setting [4] was determined as 30 nM.
“GAGAACUGAGGAUAUACAUGAGGAUCACCCAUGUUAAGAAGAAAGUAUAAAAGAUUAUGUAGAAGGCAGAGAGA [JR_Ex3_Sub068] (Eterna round: R97, puzzle: Exclusion 3)”: the “apparent KD of MS2 coat protein” value by setting is: (input ligand: FMN 200 uM) 29.8 nM; (input ligand: none) 33.3 nM.
As to “GAGAAGGUAGGAUAUACGAAUAAAUAGGGUAGUAAUAAUACACAUGAGGAUCACCCAUGUAGAAGGACCAAUAG [Mat - Exclusion 2 - Mod of my Tesla design - D40] (puzzle: Exclusion 2)”, the “apparent KD of MS2 coat protein” value is 42.5 nM under setting [2], 20.8 nM under setting [3] and 24.9 nM under setting [4].
For the sequence “GAGGAACAUGAGGAUCACCCAUGUGAGGAUAUGCAUAGCGAGGUAGUAGAAGUUGAAUGCAGAAGGUACACGGA [JR_Exclu1_Sub076] (puzzle: Exclusion 1)”, under setting [3], the “apparent KD of MS2 coat protein” value was 27.5 nM.
On to “GAGGAACAUGAGGAUCACCCAUGUGAGGAUAUGCAUAGUGAGGUAGUAGACGUUGAAUGCAGAAGGUACACUGA [JR_Exclu1_Sub078] (puzzle: Exclusion 1)”, for which, under setting [3], the “apparent KD of MS2 coat protein” value came to 35.7 nM.
Consider “GAGUCACAUGAGGAUCACCCAUGUGAGGAUAUCAUGCUUCGUAGUAAACUACGAAGUGUGAGAAGGCACAAUGG [Omei Ex1 C8] (Eterna round: R97, puzzle: Exclusion 1)”, for which the “apparent KD of MS2 coat protein” value (input ligand: FMN 200 uM) amounted to 126 nM and the “apparent KD of MS2 coat protein” value (input ligand: none) is 68.6 nM.
For “GAGUCCUUGGUGAGGAUAUGGCGAGGAGCACUUGUCCAGAAGGCACAUGAGGAUCACCCAUGUUCUAGUAAUUG [Eternabot (L2) Solution 75] (Eterna round: R97, puzzle: Brourd's mod of Exclusion 4)” the same measures were 77.2 nM and 30.2 nM.
Take “GAGUGACAUGAGGAUCACCCAUGUGAGGAUAUCGGACGGACCAAAUUAACAACAACCGCGAGAAGGCACAUCGG [Exclusion 1 V20] (puzzle: Exclusion 1)”: the “apparent KD of MS2 coat protein” value under setting [3] is 112 nM.
For “GAGUGACAUGAGGAUCACCCAUGUGAGGAUAUCGGACGGACCAAAUUAACAACCACCGCGAGAAGGCACAUCGG [Exclusion 1 V21] (puzzle: Exclusion 1)”, the “apparent KD of MS2 coat protein” value under setting [2] came out at 58.4 nM, the “apparent KD of MS2 coat protein” value under setting [3] amounted to 98.9 nM and the “apparent KD of MS2 coat protein” value under setting [4] is 107 nM.
As to “GAGUGGUGAGGAUAUACAUGAGGAUCACCCAUGUGCUUCAGCUAGGAGACUAGCAUUGGUAGAAGGCAUUACUC [Mod of lroppy 8 - Jieux - Exclusion 3] (Eterna round: R97, puzzle: Exclusion 3)”, the “apparent KD of MS2 coat protein” value by setting is: (input ligand: FMN 200 uM) 102 nM; (input ligand: none) 33.6 nM.
For “GAGUUAACAUGAGGAAUAUACAUGAGGAUCACCCAUGUUAACAAAACUUUUGCUCGUCUUAUAACAACAAUUAACUC [Alarm 2 - Jieux - Sensor, turn-off variant 1] (Eterna round: R97, puzzle: Sensor, turn-off variant 1)”, the “apparent KD of MS2 coat protein” value by setting is: (input ligand: FMN 200 uM) 347 nM; (input ligand: none) 133 nM.
As for “GAUACACAUGAGGAUCACCCAUGUGAGGAUAUGAUACUAUGUACUUCGGUACAUAGUAUCAGAAGGCACAUUGA [Ex1-3: 44] (puzzle: Exclusion 1)”, the “apparent KD of MS2 coat protein” value under setting [3] was found to be 61.2 nM.
Turning to “GAUACCCAAGUCAGGAUAUCGGGAUACGAAAGUCACGAGAAGGGACAUGAGGAUCACCCAUGUAAAUAAAUAAA [Arege] (puzzle: Brourd's mod of Exclusion 4)”, the “apparent KD of MS2 coat protein” value by setting is: under setting [2], 62.7 nM; under setting [3], 31.1 nM; under setting [4], 33.2 nM.
Consider “GAUAGACAUGAGGAUCACCCAUGUGAGGAUAUGCGUACGUUGUCAGUAGGCGACGUGCGCAGAAGGCGCAAGUU [Mat - Mod of JL D91] (puzzle: Exclusion 1)”, for which the “apparent KD of MS2 coat protein” value under setting [3] turned out to be 61.8 nM.
For the sequence “GAUAGGACGUGGUCAGGUAACAUGAGGAUCACCCAUGUAGGUCUAGGAACAAGCUUUUUGAAAGCUCGUCUUAUAAA [JR_SV3TOV1_Sub056] (puzzle: Sensor v3, turn-off variant 1)”, the “apparent KD of MS2 coat protein” value under setting [2] is 17.4 nM, the “apparent KD of MS2 coat protein” value under setting [3] is 18.9 nM and the “apparent KD of MS2 coat protein” value under setting [4] was found to be 21.2 nM.
Consider “GAUAUGUAAGGAUAUCUAGAAACGAGCGCAGGCUCAAGAAAAGAGAAGGUACAUGAGGAUCACCCAUGUUCCUG [EX4 A.13] (Eterna round: R97, puzzle: Exclusion 4)”, for which the “apparent KD of MS2 coat protein” value was 21.1 nM (input ligand: FMN 200 uM) and 17.9 nM (input ligand: none).
For “GAUCAACAUGAGGAUCACCCAUGUGAGGAUAUGAUACUAUGUACUUCGGUACAUAGUAUCAGAAGGCAUAUUGA [Ex1-3: 41] (puzzle: Exclusion 1)”, the “apparent KD of MS2 coat protein” value under setting [3] worked out at 50.7 nM.
“GAUCAGCUUGUGAGGAUAUCCGGGCAUAAAGGCUAGGAGAAGGUACAUGAGGAUCACCCAUGUAGAGUCCUGGG [Bisoraxe] (puzzle: Brourd's mod of Exclusion 4)”: the “apparent KD of MS2 coat protein” value under setting [3] was determined as 41.2 nM.
Consider “GAUCAUGCAGGAUAUACAUGGAACAUGAAAUCAUGAAUUUCACAUGAGGAUCACCCAUGUAGAAGGGCAUGAUC [Omei Ex2 A15] (Eterna round: R97, puzzle: Exclusion 2)”, for which the “apparent KD of MS2 coat protein” value reads like this: (input ligand: FMN 200 uM) 23.1 nM; (input ligand: none) 24.9 nM.
For “GAUCUACAUGAGGAUCACCCAUGUAAGGAUAUCUACAUUGAAGCCUCGGCUUCAAUGUAGAGAAGGUACAAUUA [E1/10-B2] (Eterna round: R97, puzzle: Exclusion 1)” the same measures were 31.5 nM and 32.4 nM.
For “GAUCUACAUGAGGAUCACCCAUGUAAGGAUAUUGAGUACUCGAAUGGAGAGCAAGGAUCAAGAAGGUGCAAUAU [Eternabot (L1) Solution 79] (Eterna round: R97, puzzle: Exclusion 1)” the same measures were 18.8 nM and 23.1 nM.
On to “GAUGUUCUGGUCAGGAUAUGCAUCCGUCGGCCGGAGCAGAAGGGACAUGAGGAUCACCCAUGUGCGGGUACAAA [Onvegeor] (puzzle: Brourd's mod of Exclusion 4)”, for which, under setting [3], the “apparent KD of MS2 coat protein” value came out at 38.4 nM.
Regarding “GAUUAACAUGAGGAUCACCCAUGUGAGGAUAUGAACUUGCCCACUUACCAGAUAAAGUUUAGAAGGCGCAUUCU [1986#35] (Eterna round: R97, puzzle: Exclusion 1)”, the “apparent KD of MS2 coat protein” value reads like this: (input ligand: FMN 200 uM) 47.3 nM; (input ligand: none) 30.4 nM.
For “GAUUAGACUAAGGAUAUUACGAGCUCUGUGCCGUGAGAAGGUAGCACAUGAGGAUCACCCAUGUGACCAUCAUG [Eternabot (L2) Solution 81] (Eterna round: R97, puzzle: Exclusion 6)” the same measures were 180 nM and 58.6 nM.
“GAUUAUGCGAGCUUUAGGGACAUGAGGAUCACCCAUGUUCGUCUUAUUAGUCUAGGUACACUGACAUACCUAAAUCU [JMF 67] (puzzle: Sensor v3, turn-off variant 1)”: the “apparent KD of MS2 coat protein” value is, setting by setting: under setting [2], 22.7 nM; under setting [3], 33.1 nM; under setting [4], 23.6 nM.
“GCAAGCUUUUGCUCGGCUUACAUGAGGAUCACCCAUGUGGGCCCGGGCCCGGGCCCGCCGGGCCCGGGCCCGGGCCC [-58.5, -80.7, A 10%] (Eterna round: R97, puzzle: Sensor, turn-off variant 1)”: the “apparent KD of MS2 coat protein” value (input ligand: FMN 200 uM) came to 24.4 nM and the “apparent KD of MS2 coat protein” value (input ligand: none) is 25.4 nM.
The corresponding values for “GCAAGCUUUUGCUCGUCUUACAUGAGGAUCACCCAUGUCGGGUGAUUGCUUCGUGCCCGGGCCCGCCGGGCCCGGGC [-41.5, -70.8 kcal, A 12%] (Eterna round: R97, puzzle: Sensor, turn-off variant 1)” are 76.9 nM and 97.8 nM.
“GCACGAAGUGUAGGAUAUCUGUGCGAUUAGCUCAGAGAAGGACACAUGAGGAUCACCCAUGUGUUCCAAUACCCAAAUACGUGC [Eli exng1 - 061] (Eterna round: R96, puzzle: Exclusion NG 1)”: the “apparent KD of MS2 coat protein” value is, setting by setting: (input ligand: FMN 200 uM) 11 nM; under setting [1], 7.69 nM; (input ligand: none) 11.3 nM.

Source of the values: the supplement of paper PMC9170038.
